# According to IntAct's records for PubMed 21135508:
# B1: Myotubularin (Homo sapiens), Q13496 (parent)
# chain: MASASTSKYNSHSLENESIKRTSRDGVNRDLTEAVPRLPGETLITDKEVIYICPFNGPIKGRVYITNYRLYLRSLETDSSLILDVPLGVISRIEKMGGATSRGENSYGLDITCKDMRNLRFALKQEGHSRRDMFEILTRYAFPLAHSLPLFAFLNEEKFNVDGWTVYNPVEEYRRQGLPNHHWRITFINKCYELCDTYPALLVVPYRASDDDLRRVATFRSRNRIPVLSWIHPENKTVIVRCSQPLVGMSGKRNKDDEKYLDVIRETNKQISKLTIYDARPSVNAVANKATGGGYESDDAYHNAELFFLDIHNIHVMRESLKKVKDIVYPNVEESHWLSSLESTHWLEHIKLVLTGAIQVADKVSSGKSSVLVHCSDGWDRTAQLTSLAMLMLDSFYRSIEGFEILVQKEWISFGHKFASRIGHGDKNHTDADRSPIFLQFIDCVWQMSKQFPTAFEFNEQFLIIILDHLYSCRFGTFLFNCESARERQKVTERTVSLWSLINSNKEKFKNPFYTKEINRVLYPVASMRHLELWVNYYIRWNPRIKQQQPNPVEQRYMELLALRDEYIKRLEELQLANSAKLSDPPTSPSSPSQMMPHVQTHF
# Variants of: B1
# Conditions: with desm_human DES
row,effect of a mutation on the interaction,Variant
1,disrupting interaction,R184G
2,disrupting interaction,P205L
3,disrupting interaction,D278A
4,disrupting interaction,R241C
